Experiments:
Assay in all cases: cell-based or functional assay
[1] = target: T1, HA of influenza A virus H1N1 A/Texas/05/2009-RG15 (pandemic), on virus (influenza A virus H1N1 …)
[2] = target: T2, HA of influenza A virus H1N1 A/New York/18/2009-RG18 (pandemic), on virus (influenza A virus H1N1 (A/New …))
[3] = target: HA of influenza A virus H1N1 A/Solomon Islands/3/2006 (seasonal), on virus (influenza A virus H1N1 (A/Solomon …))
[4] = target: HA of influenza A virus H1N1 A/Ohio/83 (seasonal), on virus (influenza A virus H1N1 (A/Ohio/83))
[5] = target: HA of influenza A virus H2N2 A/Ann Arbor/6/60 ca, on virus (influenza A virus H2N2 (A/Ann …))
[6] = target: HA of influenza A virus H5N1 A/Vietnam/1203/04, on virus (influenza A virus H5N1 …)
[7] = target: HA of influenza A virus H5N1 A/Anhui/1/05, on virus (influenza A virus H5N1 (A/Anhui/1/05))
[8] = target: HA of influenza A virus H3N2 A/Wisconsin/67/2005, on virus (influenza A virus H3N2 …)
[9] = target: T1, HA of influenza A virus H1N1 …; remark: listed apart in the source
[10] = target: T2, HA of influenza A virus H1N1 A/New …; remark: listed apart in the source
[11] = target: T1, HA of influenza A virus H1N1 …; remark: listed apart in the source
[12] = target: T2, HA of influenza A virus H1N1 A/New …; remark: listed apart in the source

Binder | MN assay: lowest antibody concentration at which no virus antigen was detected [1] | MN assay: lowest antibody concentration at which no virus antigen was detected [2] | MN assay: lowest antibody concentration at which no virus antigen was detected [3] | MN assay: lowest antibody concentration at which no virus antigen was detected [4] | MN assay: lowest antibody concentration at which no virus antigen was detected [5] | MN assay: lowest antibody concentration at which no virus antigen was detected [6] | MN assay: lowest antibody concentration at which no virus antigen was detected [7] | MN assay: lowest antibody concentration at which no virus antigen was detected [8] | Antibody concentration* (neutralizing antibody concentration) [9] | IC50 of neutralizing activity [9] | Antibody concentration* (neutralizing antibody concentration) [10] | IC50 of neutralizing activity [10] | Hemagglutination-inhibition test: hemagglutination inhibition end point [11] | Hemagglutination-inhibition test: hemagglutination inhibition end point [12]
CT104 antibody (antibody, V domains shown) VH: QVQLVQSGAEVKKPGSSVKVSCKASGGTLNNYAISWVRQAPGQGLEWMGGISPIFGTLNYAERFQGRVTITADVFTNTVYMELSSLRSEDTAVYFCARGCGYNCYYFDGWGQGTLVTVSS VL: EIVLTQSPGTLSLSPGERATLSCRASQSLSSSSLVWYQQKPGQAPRLLIYGASSRATGIPDRFSGSGSGTDFTLTISRLEPEDFAVYYCQQYGNSPYTFGQGTQVEIKR | 0.313 µg/mL | 0.625 µg/mL | 0.625 µg/mL | 0.313 µg/mL | > 10 µg/mL | 1.25 µg/mL | 0.625 µg/mL | > 10 µg/mL | 0.313 µg/mL | 0.29 µg/mL | 1.25 µg/mL | 0.56 µg/mL | > 20 µg/mL | > 20 µg/mL
CT123 antibody (antibody, V domains shown) VH: QVQLVESGGGVVQPGRSLRLSCAASGFTFSRFGIHWVRQAPGKGLEWMAVIWYDGSNKFYADSVKGRFTISRDNSKNTVYLQMNSLRAEDTAVYYCAKDSRGYCSSIICFEGGLDNWGQGTLVTVSS VL: ETVLTQSPGTLSLSPGERATLSCRASQSVSISYLAWYQRKPGQAPRLLIYGASRRATGIPDRFSGSGSGTDFTLTISRLEPEDFAVYYCQQYGSSPYTFGQGTKLEIKR | 0.313 µg/mL | 0.625 µg/mL | 1.25 µg/mL | 0.313 µg/mL | > 10 µg/mL | > 10 µg/mL | > 10 µg/mL | > 10 µg/mL | 0.625 µg/mL | 0.068 µg/mL | 1.25 µg/mL | 0.29 µg/mL | > 20 µg/mL | > 20 µg/mL
CT120 antibody (antibody, V domains shown) VH: QVQLVQSGAEVKMPGSSVKVSCKTSGVFFSSHAISWVRQAPGQGLEWMGGISPMFGTTHYAQKFQGRVTITADQSTTTAYMELTSLTSEDTAVYYCARDGAGSYYPLNWFDPWGQGTLVTVSS VL: EIVLTQSPATLSLSPGERATLSCRASENIWNNLAWYQQKPGQAPRLLISGASTGATGVPSRFRGSGSRTEFTLTISSLQSEDFAIYFCQQYNSWPRTFGPGTKVEIKR | 0.313 µg/mL | 0.313 µg/mL | 0.625 µg/mL | 0.156 µg/mL | 2.5 µg/mL | 1.25 µg/mL | 0.625 µg/mL | > 10 µg/mL | 0.156 µg/mL | 0.15 µg/mL | 0.313 µg/mL | 0.31 µg/mL | > 20 µg/mL | > 20 µg/mL
